Data from patent US6849441.

Target: protease TCES (hyperthermostable protease derived from Thermococcus celer), enzyme preparation (Thermococcus celer)
Assay: cell-based or functional assay

Chain of protease TCES (hyperthermostable protease derived from Thermococcus celer), enzyme preparation (Thermococcus celer) (chain, as listed by the source limits assumed): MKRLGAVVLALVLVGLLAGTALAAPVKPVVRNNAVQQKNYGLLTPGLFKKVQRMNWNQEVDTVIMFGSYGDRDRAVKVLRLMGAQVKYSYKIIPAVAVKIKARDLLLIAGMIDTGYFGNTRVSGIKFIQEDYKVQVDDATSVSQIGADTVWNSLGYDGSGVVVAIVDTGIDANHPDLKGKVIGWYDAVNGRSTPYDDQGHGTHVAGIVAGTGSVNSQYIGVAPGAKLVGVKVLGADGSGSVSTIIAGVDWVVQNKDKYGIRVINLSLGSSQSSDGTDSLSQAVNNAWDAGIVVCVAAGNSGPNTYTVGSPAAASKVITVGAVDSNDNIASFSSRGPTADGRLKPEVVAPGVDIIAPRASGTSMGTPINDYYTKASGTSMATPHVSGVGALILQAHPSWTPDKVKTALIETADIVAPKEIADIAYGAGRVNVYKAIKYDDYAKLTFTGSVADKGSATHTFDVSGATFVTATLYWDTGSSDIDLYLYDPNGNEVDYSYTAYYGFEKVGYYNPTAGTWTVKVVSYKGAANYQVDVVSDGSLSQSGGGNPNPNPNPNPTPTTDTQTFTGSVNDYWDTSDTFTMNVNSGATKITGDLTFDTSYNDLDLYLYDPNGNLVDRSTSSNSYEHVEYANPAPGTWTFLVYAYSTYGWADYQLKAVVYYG

enzyme activity compared with control without reagent, after treatment at 37° C. for 30 minutes with 1 mM reagent	Substance
19%	Antipain (peptide)
0%	Chymostatin (peptide)
104%	Leupeptin (peptide)
105%	Pepstatin (peptide)
